± gives the uncertainty stated by the source.
Assay: self-splicing fitness, log relative to wild type (ln ratio); higher = more splicing; Tetrahymena group I intron in knt gene, E. coli kanamycin selection, DiMSum; sequences stand for … in CUCUCU…GGAGGGAAAAGUUAUCAGGCAUGCACCUGGUAGCUAGUCUUUAAACCAAUAGAUUGCAUCGGUUUAAAAGGCAAGACCGUCAAAUUGCGGGAAAGGGGUCAACAGCCGUUCAGUACCAAGUCUCAGGGGAAACUUUGAGAUGGCCUUGCAAAGGGUAUGGUAAUAAGCUGACGGACAUGGUCCUAACCACGCAGCCAAGUCCUAAGUCAACAGAUCUUCUGUUGAUAUGGAUGCAGUUCACAGACUAAAUGUCGGUCGGGGAAGAUGUAUUCUUCUCAUAAGAUAUAGUCGGACCUCUCCUUAAUGGGAGCUAGCGGAUGAAGUGAUGCAACACUGGAGCCGCUGGGAACUAAUUUGUAUGCGAAAGUAUAUUGAUUAGUUUUGGAGUACUCGUGGUCG
Summary of the method: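 The eight P1ex-region nucleotides of an intron in the knt kanamycin-resistance gene on pET-22b(+) were all randomised and the library put into E. coli BL21(DE3). Six replicate transformations were grown overnight at 37°C or 30°C on LB agar with or without 25 μg/mL kanamycin, together with 100 μg/mL carbenicillin, 50 μM IPTG and 0.2% rhamnose. Colonies were pooled and amplicon-sequenced on an Illumina HiSeq 2500. Fitness from DiMSum is the error-weighted combination of wild-type-normalised replicate fold changes, kanamycin over none.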

Sequence	self-splicing fitness (ln) (30 °C)	self-splicing fitness (ln) (37 °C)
AUAAAGCAAUAUUACGUGUG	-1.55 ± 0.061	-0.947 ± 0.073
AAUCAGCAAUAUUACGCUAU	-0.347 ± 0.084	0.0833 ± 0.12
CAGCAGCAAUAUUACGGUCU	-2.87 ± 0.13	-0.712 ± 0.1
GCAUAGCAAUAUUACGUCGG	-2.24 ± 0.14	-1.47 ± 0.13
CUCGAGCAAUAUUACGCCGU		-1.79 ± 0.26
GUAUAGCAAUAUUACGCUAG	-2.46 ± 0.43	-0.609 ± 0.3
UCUGAGCAAUAUUACGCCAG		-0.871 ± 0.46
CGUCAGCAAUAUUACGCGUU	-2.71 ± 0.14	-2.01 ± 0.18
GAUUAGCAAUAUUACGUGAG	-1.33 ± 0.073	0.0593 ± 0.096
UGCCAGCAAUAUUACGUGAC	-3.43 ± 0.16	-3.2 ± 0.22
ACACAGCAAUAUUACGUUCU	-0.986 ± 0.06	-0.532 ± 0.068
UUGCAGCAAUAUUACGCCCA	-1.28 ± 0.21	-0.155 ± 0.25
CGCGAGCAAUAUUACGUCAA	-2.88 ± 0.31	
AGCAAGCAAUAUUACGUGCC		-1.63 ± 0.27
UUUCAGCAAUAUUACGUGCA	-0.77 ± 0.13	0.0542 ± 0.17
UCCGAGCAAUAUUACGAGAG	-2.57 ± 0.16	-2.91 ± 0.21
CGACAGCAAUAUUACGUUAG	-2.51 ± 0.097	-0.772 ± 0.095
AGGAAGCAAUAUUACGCUGU	-2.29 ± 0.29	
CCACAGCAAUAUUACGAACG	-0.247 ± 0.07	-0.267 ± 0.075
GCAAAGCAAUAUUACGCGUU	-1.96 ± 0.13	-2.03 ± 0.2
AGACAGCAAUAUUACGCCCU	-0.687 ± 0.083	0.0722 ± 0.1
GCUCAGCAAUAUUACGCCGC	-3.66 ± 0.44	
CCGCAGCAAUAUUACGCCCC	-3.29 ± 0.36	-1.4 ± 0.45
AGCCAGCAAUAUUACGGGGU	-4.08 ± 0.19	-2.22 ± 0.15
CUCAAGCAAUAUUACGUAUG	-2.91 ± 0.099	-2.61 ± 0.12
GGUGAGCAAUAUUACGUAUA	-3.76 ± 0.29	-3.25 ± 0.37
CAAAAGCAAUAUUACGGUUA	-1.72 ± 0.1	-0.514 ± 0.083

Sequence	self-splicing fitness (ln) (30 °C)	self-splicing fitness (ln) (37 °C)
UUGAAGCAAUAUUACGCUAG	-0.524 ± 0.19	-0.328 ± 0.17
CUCUAGCAAUAUUACGCUCU	-3.22 ± 0.19	-3.77 ± 0.31
UAGGAGCAAUAUUACGACUC	-2.01 ± 0.28	
ACUGAGCAAUAUUACGCAUU	-2.71 ± 0.1	-1.29 ± 0.11
UAACAGCAAUAUUACGUCCU	-0.956 ± 0.085	-0.192 ± 0.1
GUACAGCAAUAUUACGAUCG	-1.67 ± 0.12	-0.932 ± 0.16
AGCUAGCAAUAUUACGAAAA	-3.04 ± 0.38	-1.66 ± 0.23
GUUCAGCAAUAUUACGGGGG	-1.52 ± 0.13	-1.4 ± 0.16
CCUAAGCAAUAUUACGUAUG	-1.82 ± 0.082	-0.95 ± 0.087
AGUAAGCAAUAUUACGCGAA	-2.57 ± 0.12	-1.42 ± 0.19
CUAGAGCAAUAUUACGCGUU	-4.14 ± 0.24	-2.46 ± 0.27
GGUGAGCAAUAUUACGUGUC	-3.03 ± 0.26	-1.99 ± 0.32
GGAGAGCAAUAUUACGCACG		-0.798 ± 0.47
GCCCAGCAAUAUUACGAAGA	-1.46 ± 0.12	-0.344 ± 0.14
UACCAGCAAUAUUACGCUAG	-1.76 ± 0.074	-1.03 ± 0.083
UAGUAGCAAUAUUACGGCCC	-2.09 ± 0.17	-1.92 ± 0.37
UUCAAGCAAUAUUACGGCGU	-1.61 ± 0.094	-0.465 ± 0.12
GACCAGCAAUAUUACGUGUC	-3.52 ± 0.16	-3.05 ± 0.24
CGGAAGCAAUAUUACGGCAA	-2.89 ± 0.22	-1.41 ± 0.18
UAGAAGCAAUAUUACGGGUC	-3.55 ± 0.33	-2.84 ± 0.44
AUGGAGCAAUAUUACGUUAG	-3.17 ± 0.32	-2.49 ± 0.29
ACAGAGCAAUAUUACGGUUU	-3.11 ± 0.2	-1.81 ± 0.16
CCAUAGCAAUAUUACGGAUA	-2.94 ± 0.21	-1.81 ± 0.21
GCUAAGCAAUAUUACGUUAG	-2.7 ± 0.28	-2.2 ± 0.28
GUCGAGCAAUAUUACGCCAG		-2 ± 0.43
GAGUAGCAAUAUUACGUUGA	-2.27 ± 0.27	-2.76 ± 0.36
AUCAAGCAAUAUUACGGGAU	-2.33 ± 0.097	-2.12 ± 0.13

Sequence	self-splicing fitness (ln) (30 °C)	self-splicing fitness (ln) (37 °C)
UUAGAGCAAUAUUACGGUAG	-1.27 ± 0.12	-0.297 ± 0.14
AGACAGCAAUAUUACGGAGG	-3.35 ± 0.18	-2.48 ± 0.23
AGACAGCAAUAUUACGGCGU	-0.937 ± 0.057	-0.314 ± 0.065
AAAGAGCAAUAUUACGAAGA	-4.23 ± 0.46	-1.64 ± 0.21
CUCGAGCAAUAUUACGAUCA	-2.04 ± 0.4	
CUGAAGCAAUAUUACGGAGU	-3.2 ± 0.37	-2.33 ± 0.26
CGGAAGCAAUAUUACGUCAU	-3.78 ± 0.16	-3.33 ± 0.2
GAUAAGCAAUAUUACGAGCU	-0.688 ± 0.11	-1.13 ± 0.12
ACAUAGCAAUAUUACGAUAC	-3.6 ± 0.23	-2.2 ± 0.25
ACUUAGCAAUAUUACGAGUC		-3.01 ± 0.35
AACUAGCAAUAUUACGACCG	-0.914 ± 0.12	0.134 ± 0.15
AAGAAGCAAUAUUACGCCAU	-2.82 ± 0.24	-2.62 ± 0.27
AAGAAGCAAUAUUACGCGAG	-0.936 ± 0.081	-0.561 ± 0.1
CGUGAGCAAUAUUACGAUGA	-3.64 ± 0.23	-2.04 ± 0.17
AUCAAGCAAUAUUACGCUCG	-0.803 ± 0.091	-0.236 ± 0.11
UACCAGCAAUAUUACGACAC	-2.34 ± 0.13	-1.16 ± 0.15
UGUGAGCAAUAUUACGGCAG	-2.64 ± 0.27	-0.26 ± 0.28
UCCCAGCAAUAUUACGAAGU	-2.04 ± 0.1	-1.14 ± 0.11
UGUCAGCAAUAUUACGACAG	-1.62 ± 0.16	-0.615 ± 0.14
CGAAAGCAAUAUUACGCAAC	-2.4 ± 0.18	-2.39 ± 0.35
CCAAAGCAAUAUUACGUUGU	-3.77 ± 0.12	-2.44 ± 0.12
ACACAGCAAUAUUACGGACC	-1.99 ± 0.093	-0.524 ± 0.11
GAAAAGCAAUAUUACGCUAA	-2.24 ± 0.16	-1.1 ± 0.13
CACGAGCAAUAUUACGAUGA	-3.21 ± 0.24	-2.17 ± 0.23
UUAUAGCAAUAUUACGUUAU		-2.31 ± 0.34

Reference: the supplement of paper PMC7877785
